Target: HA-tagged re-expressed version of the Qa-1b molecule (mouse)
Test: immunoprecipitation of Qa-1b from tumor cells, mass spectrometry of the associated peptides

- percent of Qa-1b associated with the peptide (control sample): > 99%
Binder: AMAPRTLLL [Mouse Qdm Peptide]

— patent US20220057403A1
